Where a chain is given by its changes, count along the chain named.
B1: CA9hu-2_HC1LC5 (antibody, V domains shown)
VH: EVQLVESGGGLVQPGGSLKLSCAASGFTFNTNAMHWVRQASGKGLEWVGRIRSKSNNYTTYYADSVKDRFTISRDDSKNTAYLQMNSLKTEDTAVYYCVCGSWFAYWGQGTLVTVSS
VL: DIVMTQSPDSLAVSLGERATINCKSSQSLLNSSNQKNYLAWYQQKPGQPPKLLIYFTSTRQSGVPDRFSGSGSGTDFTLTISSLQAEDVAVYYCQQHYSIPLTFGQGTKLEIK
notes: Humanized variant of IV/18; VH in-frame with human IgG constant domain (allotype G1m17,1), VL in-frame with human kappa constant domain (allotype Km3)
B2: CA9hu-2_HC4LC2 (antibody, V domains shown)
VH: B1 VH with L11V, G16R, K19R, S41P, G49A, D76N, A81L, K89R, T90A
VL: B1 VL with Y42F, K51N, L53V, S82N, Y93F, K109Q, L110V
notes: as for B1
B3: CA9hu-2_HC3LC1 (antibody, V domains shown)
VH: QVQLVESGGGVVQPGGSLRLSCAASGFTFNTNAMHWVRQAPGRGLEWVARIRSKSNNYTTYYADSVKDRFTISRDNSKNTLYLQVNSLRAEDTAVYYCVCGSWFAYWGQGTLVTVSS
VL: B1 VL with I2V, A19V, P49S
notes: as for B1
B4: CA9hu-2_HC3LC2 (antibody, V domains shown)
VH: B3 VH
VL: B1 VL with Y42F, K51N, L53V, S82N, Y93F, K109Q, L110V
notes: as for B1
B5: CA9hu-2_HC3LC3 (antibody, V domains shown)
VH: B3 VH
VL: B1 VL with V3Q, Y93F, L110V
notes: as for B1
B6: CA9hu-2_HC3LC4 (antibody, V domains shown)
VH: B3 VH
VL: B1 VL with Y42F, L52V, S69T
notes: as for B1
B7: CA9hu-2_HC2LC3 (antibody, V domains shown)
VH: B1 VH with N79S
VL: B1 VL with V3Q, Y93F, L110V
notes: as for B1
B8: CA9hu-2_HC4LC4 (antibody, V domains shown)
VH: B3 VH with Q1E, G16R, R43K, V85M
VL: B1 VL with Y42F, L52V, S69T
notes: as for B1
B9: CA9hu-2_HC1LC4 (antibody, V domains shown)
VH: B1 VH
VL: B1 VL with Y42F, L52V, S69T
notes: as for B1
B10: CA9hu-2_HC2LC5 (antibody, V domains shown)
VH: B1 VH with N79S
VL: B1 VL
notes: as for B1
B11: CA9hu-2_HC2LC2 (antibody, V domains shown)
VH: B1 VH with N79S
VL: B1 VL with Y42F, K51N, L53V, S82N, Y93F, K109Q, L110V
notes: as for B1
B12: CA9hu-2_HC1LC1 (antibody, V domains shown)
VH: B1 VH
VL: B1 VL with I2V, A19V, P49S
notes: as for B1
B13: CA9hu-2_HC1LC3 (antibody, V domains shown)
VH: B1 VH
VL: B1 VL with V3Q, Y93F, L110V
notes: as for B1
B14: CA9hu-2_HC5LC1 (antibody, V domains shown)
VH: B1 VH with L112T
VL: B1 VL with I2V, A19V, P49S
notes: as for B1
B15: CA9hu-2_HC5LC5 (antibody, V domains shown)
VH: B1 VH with L112T
VL: B1 VL
notes: as for B1
B16: CA9hu-2_HC3LC5 (antibody, V domains shown)
VH: B3 VH
VL: B1 VL
notes: as for B1
B17: CA9hu-2_HC5LC4 (antibody, V domains shown)
VH: B1 VH with L112T
VL: B1 VL with Y42F, L52V, S69T
notes: as for B1
B18: CA9hu-2_HC5LC2 (antibody, V domains shown)
VH: B1 VH with L112T
VL: B1 VL with Y42F, K51N, L53V, S82N, Y93F, K109Q, L110V
notes: as for B1
B19: CA9hu-2_HC1LC2 (antibody, V domains shown)
VH: B1 VH
VL: B1 VL with Y42F, K51N, L53V, S82N, Y93F, K109Q, L110V
notes: as for B1
B20: CA9hu-2_HC4LC1 (antibody, V domains shown)
VH: B3 VH with Q1E, G16R, R43K, V85M
VL: B1 VL with I2V, A19V, P49S
notes: as for B1
B21: CA9hu-2_HC2LC1 (antibody, V domains shown)
VH: B1 VH with N79S
VL: B1 VL with I2V, A19V, P49S
notes: as for B1
B22: CA9hu-2_HC5LC3 (antibody, V domains shown)
VH: B1 VH with L112T
VL: B1 VL with V3Q, Y93F, L110V
notes: as for B1
B23: CA9hu-2_HC4LC3 (antibody, V domains shown)
VH: B3 VH with Q1E, G16R, R43K, V85M
VL: B1 VL with V3Q, Y93F, L110V
notes: as for B1
B24: CA9hu-2_HC2LC4 (antibody, V domains shown)
VH: B1 VH with N79S
VL: B1 VL with Y42F, L52V, S69T
notes: as for B1

Target: CA IX-positive antigen (protein extract of C-33a_CA IX cells) (human, UniProt Q16790 38-459)
Test: ELISA, antibody 5 ug/ml on coated protein extract of C-33a_CA IX cells versus C-33a_neo
Procedure: To evaluate the antigen-binding specificity, all twenty-five humanized variants of CA9hu-2 were subjected to enzyme-linked immunosorbent assay (ELISA) using either CA IX-positive or CA IX-negative antigen. Antigens were prepared from stably transfected C-33a cell line expressing CA IX (C-33a_CA IX) and parental mock-transfected C-33a cells without CA IX expression (C-33a_neo).
Proteins were extracted from the cell monolayer with RIPA lysis buffer (0.1% deoxycholate, 1% Triton X-100 and protease inhibitor cocktail in PBS). Protein concentrations were determined by bicinchoninic acid assay (ThermoFisher Scientific, Waltham, Mass. USA) according to the manufacturer's instructions. Protein extracts were diluted to final concentration 0.2 mg/ml in PBS. Protein concentration of antigen samples used in screening of antigen-antibody specific interaction tested by ELISA meets the requirements for low detergent content that could otherwise interfere throughout the analysis. 50 μl of either CA IX-positive or CA IX-negative antigen was coated on the surface of microplate wells overnight at 37° C. After washing with PBS-T 0.05% Tween-20 in PBS pH7.2, 50 μl of all humanized variants of CA9hu-2 (diluted to concentration 5 μg/ml in 10% FCS in PBS-T) were added and incubated for 2 h at room temperature. Peroxidase-labeled swine anti-human IgG (diluted 1:5000 in 10% FCS in PBS-T; Sigma-Aldrich, St. Louis, Mo. USA) was used as detector. Parental IV/18 antibody (marked as “mouse Ab”) as well as chimeric HC0LC0 antibody (having the murine variable domains and the human Ig constant domains) were used as reference samples. Results are expressed as a fold of induction and are calculated as O.D. values of absorbance measured at 492 nm from CA IX-positive antigen/O.D. values of absorbance measured at 492 nm from CA IX-negative antigen.

binding result	Binder
binds	B1
binds	B2
binds	B3
binds	B4
binds	B5
binds	B6
binds	B7
binds	B8
binds	B9
binds	B10
binds	B11
binds	B12
binds	B13
binds	B14
binds	B15
binds	B16
binds	B17
binds	B18
binds	B19
binds	B20
binds	B21
binds	B22
binds	B23
binds	B24
